These results are taken from PMC4738300, “Physiological lipid composition is vital for homotypic ER membrane fusion mediated by the dynamin-related GTPase Sey1p” (Scientific Reports, 2016).

Data set [1] deals with the molecule itself. Nature of the data set: pull-down; GST-Sey1p and His6-Sey1p, 4 uM each, mixed in RB150 (20 mM Hepes-NaOH pH 7.4, 150 mM NaCl, 10% glycerol) with 0.4% Triton X-100, 2 mM MgCl2 and 1 mM GTP, 4 °C; GST-Sey1p isolated on glutathione-Sepharose 4B; SDS-PAGE, Coomassie Blue.
Data set [2] concerns the molecule itself. Nature of the data set: proteoliposome docking assay (co-isolation of liposomes on streptavidin beads); biotin-labeled Sey1p proteoliposomes held on streptavidin magnetic beads and Rh-labeled Sey1p proteoliposomes (500 uM lipid each) in RB500 with 2 mM MgCl2 and 1 mM GTP, 30 °C, 30 min; Rh fluorescence of co-isolated liposomes; complete ER-mimicking lipids and four lipid subsets (Table 1).

B1: Sey1p (tagged full-length recombinant Sey1p: GST-His6-3C-Sey1p and His6-3C-Sey1p) (natural protein, S. cerevisiae, UniProt Q99287 1-776, looked up)
chain: MADRPAIQLIDEEKEFHQSALQYFQQCIGNRDVGLDYHVISVFGSQSSGKSTLLNVLFNTNFDTMDAQVKRQQTTKGIWLAHTKQVNTTIEIDNDRPDIFVLDVEGSDGSERGEDQDFERKAALFAIAVSEVLIVNMWEQQIGLYQGNNMALLKTVFEVNLSLFGKNDNDHKVLLLFVIRDHVGVTPLSSLSDSVTRELEKIWTELSKPAGCEGSSLYDYFDLKFVGLAHKLLQEDKFTQDVKKLGDSFVMKGTENYYFKPQYHHRLPLDGWTMYAENCWDQIERNKDLDLPTQQILVARFKTEEISNEALEEFISKYDESIAPLKGNLGSLTSQLVKLKEECLTKYDEQASRYARNVYMEKREALNTKLNSHISGTINEFLESLMEKLWDDLKLEVSSRDKATTSFVESVAAGKSKIEKEFNESMETFKKLGLLISNEEITCKFSDDIEERIKQLRDAELKAKIGRIKKNLVPELKDHVIHLLSHPSKKVWDDIMNDFESTIKDNISAYQVEKDKYDFKIGLSESENAKIYKNIRILAWRTLDTTVHDYLKIDTIVSILRDRFEDVFRYDAEGSPRLWKTEEEIDGAFRVAKEHALEVFEVLSLAVTSDNVEIIPDVPMAEEESGEDNEIYRDNEGVFHSRRFAHILTELQKENVLDQFRRQINITVLDSKRSIITTRTHIPPWIYVLLAVLGWNEFVAVIRNPLFVTLTLILGATFFVIHKFGLWGPVVNVVQSAVGETRTAIKDKLRQFVVEDHEVKESFEMKDFSKNEQKEK
notes: The bait copy is GST-His6-3C-Sey1p (pET-41 Ek/LIC) and the prey copy is His6-3C-Sey1p (pET-30 Ek/LIC); GST is on the bait copy only; The tags were not cleaved in the pull-down; also called GST-Sey1p; His6-Sey1p; source: E. coli Rosetta 2(DE3)pLysS, purified (COSMOGEL His-Accept beads, imidazole elution, dialysis; in 0.4% Triton X-100); not shown: His6, N-terminal, kept; GST, N-terminal, kept
For the protein B1, in data set [1], the binding result is recorded as “binds”.

B2: untagged full-length Sey1p reconstituted into proteoliposomes (natural protein, S. cerevisiae)
chain: GPGMADRPAIQLIDEEKEFHQSALQYFQQCIGNRDVGLDYHVISVFGSQSSGKSTLLNVLFNTNFDTMDAQVKRQQTTKGIWLAHTKQVNTTIEIDNDRPDIFVLDVEGSDGSERGEDQDFERKAALFAIAVSEVLIVNMWEQQIGLYQGNNMALLKTVFEVNLSLFGKNDNDHKVLLLFVIRDHVGVTPLSSLSDSVTRELEKIWTELSKPAGCEGSSLYDYFDLKFVGLAHKLLQEDKFTQDVKKLGDSFVMKGTENYYFKPQYHHRLPLDGWTMYAENCWDQIERNKDLDLPTQQILVARFKTEEISNEALEEFISKYDESIAPLKGNLGSLTSQLVKLKEECLTKYDEQASRYARNVYMEKREALNTKLNSHISGTINEFLESLMEKLWDDLKLEVSSRDKATTSFVESVAAGKSKIEKEFNESMETFKKLGLLISNEEITCKFSDDIEERIKQLRDAELKAKIGRIKKNLVPELKDHVIHLLSHPSKKVWDDIMNDFESTIKDNISAYQVEKDKYDFKIGLSESENAKIYKNIRILAWRTLDTTVHDYLKIDTIVSILRDRFEDVFRYDAEGSPRLWKTEEEIDGAFRVAKEHALEVFEVLSLAVTSDNVEIIPDVPMAEEESGEDNEIYRDNEGVFHSRRFAHILTELQKENVLDQFRRQINITVLDSKRSIITTRTHIPPWIYVLLAVLGWNEFVAVIRNPLFVTLTLILGATFFVIHKFGLWGPVVNVVQSAVGETRTAIKDKLRQFVVEDHEVKESFEMKDFSKNEQKEK
notes: three extra N-terminal residues (Gly-Pro-Gly) left after 3C protease cleavage, printed in three-letter code; Inserted by its two C-terminal transmembrane domains into liposomes; Protein-to-lipid ratio 1/500 (mol/mol); also called untagged form of Sey1p; Sey1p proteoliposomes; not shown: His6, N-terminal, cleaved
As for B2, the binding result in data set [2] is “binds”.
